Reference: the domain aggregation screens of Martell et al. (2025)

Test: soluble fraction after stress (log2 fold change); higher = more stays soluble; pooled small domains, quantitative proteomics
Details: stress: pH 4
Outline: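 Values are log2 fold changes, and higher ones mean more of the domain stayed soluble. Each fold change reflects the soluble amount of a domain after acid stress and is taken as a measure of aggregation propensity. The stress was pH 4, applied to pooled custom libraries of small protein domains analysed by high-throughput quantitative proteomics.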
With “HMRGFGEVGQLPSGRYRARYTGPDGGRHSAPITFVARIDAEGWLVDQERMISRGEWEPPARQ” the “soluble fraction (log2)” value was -0.384. For “HMVLSVRERMGIVLEKVNTETFTDFKELFTVEEGRAGAIVSLLAILQLMKDSLIQLVQNEPNGPIYVKAA”, the “soluble fraction (log2)” value was 0.22. In the case of “HMHKFMEQNQDRRLSRMKELIGILSEAAKTYYQESREIMSNFQYDRMYDELLELEKETGVVMAGSPTQKV”, the “soluble fraction (log2)” value is reported as -0.98. With “HMETTVPNVLNHNISTGEILLKENNLNFRIQYIPSNKDEAVGTIINSVPTSGEKVKFGTVVDLKVL” the “soluble fraction (log2)” value was -0.0719. For “HMSTMTDAQRHLFANKLSQLPEMGKYSHGTESYQQFAVRIAEMLQTPKKFKELYPYLQKVGFKA”, the “soluble fraction (log2)” value was 0.0225. With “HMNSEEINDVRKAVDELPTHLREILLLNYFQQMSYVQISDSLEIPLGTVKSRLHAAVAAFRNAWQSSQEE” the “soluble fraction (log2)” value was -0.154. In the case of “HMRLEEVSVPQRLLAAIAEEREVQIGIVDGRGGTRVLRVEPLALEGGRLRARDVESGEEFTVLIHRVLL”, the “soluble fraction (log2)” value is reported as -0.809. With “HMQKFINQEHEKAYNLMLEKDYQQALKIFDDLIYLFPNEANLLSDRGVIFIHLNKKEAALQDFDQAVF” the “soluble fraction (log2)” value was -1.49. For “HMDTIVHFLSDGRRITVRIKRNARKNIILRPMAADAVSATIPPWLGRRQLSAWLSEREDLLLSVLSRAA”, the “soluble fraction (log2)” value was -0.736. In the case of “HMPNDYRKKLEILAKEKGAEYLHTMLTEVDPKSALQIHTNNIKRTIRALEFYHQTGMKISEHNEAEREK”, the “soluble fraction (log2)” value is reported as 0.0478. With “HMSTKEFTIHAGEWSYRVSQKLENLGLVSDAKKFDQYLEDNGYSSKIKIGHYTISKDADFEEIAKEIT” the “soluble fraction (log2)” value was 0.0658. With “HMRNDIFDQLTEREMQILQEVAKGYRNKQIADHLFISESTVKVHMKSLLKKLQVPSRTAATVLYLERYG” the “soluble fraction (log2)” value was -0.406. In the case of “HMSDTSELESIIAQIIEDNPKSIEDIGAGNQKAYGFLTGQVMKATKGQANPQVANKIIRELVARKLE”, the “soluble fraction (log2)” value is reported as -0.41. In the case of “HMFEYDEIMEQSVPKIAWGSLLTIMKKASSHKEMLWYINETYKNGWSRSMVLNQIAMASYERSLIE”, the “soluble fraction (log2)” value is reported as -0.918. With “HMIDNFFTIRFNYSKINEVIRLLKEFNGEIFNKNYDKNEYIIEFSIPKKDAALLISKLKNITGLTIEQ” the “soluble fraction (log2)” value was -0.538. In the case of “HMIISPKKLEYRQRIINALGDRKMSLNELSKAMGYKGITTKLSFTVDDMIKSGVIEKVMVGAYAKLHIP”, the “soluble fraction (log2)” value is reported as 0.22. In the case of “HMFQLSNEAKQQVLGELKRYESKQSAVLPALYIGQKDNKGHITPEVIRELSKVMDIPESQINEVFTFYTM”, the “soluble fraction (log2)” value is reported as -0.402. With “HMLMTGSLQTKHGKYYVVVRIPDGLGNTKAKWINTGIPTDGNNKRKAQQRRIEILTELEENKD” the “soluble fraction (log2)” value was 0.168. For “HMKMDGESQRLLSLIKEQGGSLPIGDKSSPEAIYRLTQMSKKTFKMALGSLYKAKQVVLSPTEVRL”, the “soluble fraction (log2)” value was 0.0519. For “HMKSYAQIAEILSGQQPNTSRKEGSNLAVHADWIDALIAKYGTALRPEEANEVVKKEIGIVFSHVLEN”, the “soluble fraction (log2)” value was -1. For “HMRPLISQTLRIDRGEGDIAGPLGVLAKEYPHLSMGSYPFQKDGIYGAHVVIRGSDPGMVEAAMDKLKAAF”, the “soluble fraction (log2)” value was -0.0188. For “HMRQIMIIVLKSTATKEDSLLFKNKLEQEYGVKVNEWTGVESTVLGLIGDTTKIDIDYISAQDIVESVKRV”, the “soluble fraction (log2)” value was -0.494. For “HMDLPGIVTETDRQRADLAARIGAAKVEAVLAGGARSVEADEDFDADTRRELHQFLTRMARRAFLEER”, the “soluble fraction (log2)” value was -0.722. For “HMEVIDQLFKIALTLFDIDKGENNSISQDLVDKVIEQMKTTAPTFIKRELSEDEVKKLRFEIQNHFNV”, the “soluble fraction (log2)” value was -0.411. For “HMHSILDDIEGIGPARRKALMRHYMNLDAIKSATVEELAAVPSMNEKSAKAVHNFFHQQKKD”, the “soluble fraction (log2)” value was 0.22. With “HMRWGDPLTVKVPSFIGQTKDDIAKQHYPFRIEWHGEGAKIGSQLPEVDSVIKQDGTIHLYLV” the “soluble fraction (log2)” value was -0.0995. In the case of “HMLDGFEVGMTVMKKSGTEIGFTGWPSFADKDELPIIERIDTSDSTLLLKFKDMSWWIKASLVEPS”, the “soluble fraction (log2)” value is reported as -0.396. For “HMDENILKTRIEDLDLSVRTIKALTGASIRTVSGLARKKESDLLEISGLGDKGIQEIKRALGSLGITL”, the “soluble fraction (log2)” value was -0.0429. For “HMATEYIIPTVTNKKLEEAIGIAQLRGFEISVDEYKPSDIDEGTVLEQSPAAGTNAKQGDTISVTVSSG”, the “soluble fraction (log2)” value was -0.103. For “HMGDADDLTRIKGIGPKLSKTLNELGIYHFRQIAGWQSDEADWVDDYLSFKGRVMREQWIEQAQKFAS”, the “soluble fraction (log2)” value was -0.292. For “HMVFADRLRALRKKSGLTQDEFSKQTGIGRSAVGMYESGKREPNYTTLSKVARFYHVSTDYLLGRTDTP”, the “soluble fraction (log2)” value was -0.13. For “HMFPTLNEDEQTIVSALQKINDQPINTLSIHTALPIPRLTSLLFQLEIKGVIKQLAGGTYHVL”, the “soluble fraction (log2)” value was -0.147. With “HMSKDQKKFFIEIVSIRGFGSQIGISILNKLSIPQIINAIKTQNKKEISSIPGIGQKMTERLILELNNKFK” the “soluble fraction (log2)” value was -0.691. With “HMSMPDERMLTSWMMARVKAAGKTMTRDAWNEFFERSNDSMDHMDMEMEKLLSYVYDKDGITLEDVEA” the “soluble fraction (log2)” value was -0.381. With “HMENEIVMPVQINGKKRGDLTIARDADQASIQKAVLELDFVKAALNGGSPKKVIVVPQRIVNVV” the “soluble fraction (log2)” value was 0.127. With “HMYGVAEFDEKGNVLSIEEKPVQPKSNYAVVGLYFYPNKVVGVASGIKPSARGELEITTVNQTFLRDEELK” the “soluble fraction (log2)” value was 0.0152. In the case of “HMNNFTQSALDTIDGIGKRRKKLLLNHFGSVKLIENASIEDIKKIDGISDLVANKIYNFFNKN”, the “soluble fraction (log2)” value is reported as -0.173. With “HMESSKLQASIINYLERRPTQKFTAEELFKGLSLEKASVFNELVKELTSLERSHKVEITADDKFKIARPQ” the “soluble fraction (log2)” value was 0.0446.
